B1: huMOV19-C442-D5 (antibody, IgG1, V domains shown)
VH: QVQLVQSGAEVVKPGASVKISCKASGYTFTGYFMNWVKQSPGQSLEWIGRIHPYDGDTFYNQKFQGKATLTVDKSSNTAHMELLSLTSEDFAVYYCTRYDGSRAMDYWGQGTTVTVSS
VL: DIVLTQSPLSLAVSLGQPAIISCKASQSVSFAGTSLMHWYHQKPGQQPRLLIYRASNLEAGVPDRFSGSGSKTDFTLTISPVEAEDAATYYCQQSREYPYTFGGGTKLEIKR
modifications: compound D5 linked through its maleimide to the thiol of the engineered Cys 442 (EU/OU numbering); average 2 mol D5/mol antibody
B2: huMOV19-D2 (antibody, V domains shown)
VH: B1 VH
VL: B1 VL
modifications: compound D2 linked to lysine residues (positions and chain not stated)
B3: huMOV19-C442-D4 (antibody, IgG1, V domains shown)
VH: B1 VH
VL: B1 VL
modifications: compound D4 linked through its maleimide to the thiol of the engineered Cys 442 (EU/OU numbering); average 2 mol D4/mol antibody
B4: huMOV19 antibody (unconjugated) (antibody, human IgG1, V domains shown)
VH: B1 VH
VL: B1 VL
notes: Human IgG1; also called humanized MOV19 antibody; M9346A; copies: 2 + 2
B5: huMOV19-sulfo-SPDB-D1 (antibody, V domains shown)
VH: B1 VH
VL: B1 VL
modifications: compound D1 linked through a sulfo-SPDB linker to lysine side chain amino groups (positions and chain not stated)

How the values were obtained:
[1] = biological target: T1, folate receptor alpha (FRα) on the surface of KB and T47D cells (UniProt P15328 25-234, limits assumed); experiment: cell-based or functional assay
T1 sequence (P15328 25-234 limits assumed, stated change not applied): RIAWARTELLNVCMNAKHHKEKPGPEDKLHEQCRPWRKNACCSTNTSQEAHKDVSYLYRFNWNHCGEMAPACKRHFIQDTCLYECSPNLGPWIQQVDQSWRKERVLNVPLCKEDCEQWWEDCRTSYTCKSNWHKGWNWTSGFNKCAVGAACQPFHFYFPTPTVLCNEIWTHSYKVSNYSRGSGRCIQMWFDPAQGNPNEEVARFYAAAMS

[2] = biological target: T1, folate receptor alpha (FRα) on the …; experiment: blocking of FRα on KB cells (2 µM) in a cytotoxicity assay
Protocol: The cell lines were cultured in culture medium as recommended by the cell supplier (ATCC or DSMZ). To each well of a flat bottom 96-well plate was added 1,000-2,000 cells in 100 μL of the culture medium. Conjugates were diluted into the culture medium using 3-fold dilution series and 100 μL were added per well. […] Control wells containing cells and the medium but lacking the conjugates, as well as wells containing medium only, were included in each assay plate. Assays were performed in triplicate for each data point. The plates were incubated at 37° C. in a humidified 6% CO₂ incubator for 5 to 6 days. Then the relative number of viable cells in each well was determined using either the Alamar Blue reagent according the manufacturer's protocol (Life Technologies) or the WST-8 based Cell Counting Kit-8 (Dojindo Molecular Technologies, Inc., Rockville, Md.). The apparent surviving fraction of cells in each well was calculated by first correcting for the medium background absorbance, and then dividing each value by the average of the values in the control wells (non-treated cells). The surviving fraction of cells was plotted against conjugate concentration in semi-log plots.

| Binder | fold loss of cytotoxicity when FRα is blocked by unconjugated huMOV19 [1] [fold] | binding result [2] |
| --- | --- | --- |
| B1 | 100 |  |
| B2 | 100 |  |
| B3 | 100 |  |
| B4 |  | binds |
| B5 | 100 |  |
